Columns and labels:
[1] = target: T1, recombinant human CD4 (catalogue number: 514-CD/CF, manufactured by R&D Systems) (human, UniProt P01730 26-390); test: SPR, Biacore T100; antibody captured on anti-mouse IgG chip, recombinant human CD4 flowed; 1:1 binding model
T1 construct: Bought protein (R&D Systems); also called recombinant CD4
Protocol: In order to kinetically analyze the binding activity of anti-CD4 rat monoclonal antibodies KM4065 to KM4069 and commercially available anti-human CD4 mouse antibody for recombinant human CD4, the binding activity was measured by surface plasmon resonance method (SPR). All of the following manipulations were carried out using the Biacore T100 (manufactured by GE Healthcare Bio-Sciences). The anti-mouse IgG antibody was immobilized on a CM5 sensor chip (manufactured by GE Healthcare Bio-Sciences) by an amine coupling method using a Mouse Antibody Capture Kit (manufactured by GE Healthcare Bio-Sciences) in accordance with the protocols attached thereto. Anti-CD4 rat monoclonal antibodies KM4065 to KM4069, Leu-3a (BD Biosciences), OKT4 (BioLegend) and 13B8.2 (Beckman Coulter) were added to be captured on the anti-mouse IgG antibody-immobilized chip to give 100 RU (resonance unit), respectively. Thereafter, the recombinant human CD4 (manufactured by R&D) diluted from 2500 ng/mL in five steps was allowed to run at a flow rate of 30 μL/min onto the chip, and the sensorgram corresponding to each concentration was obtained. The analysis was carried out in the 1:1 binding model using an analysis software attached to the apparatus, thereby calculating an association rate constant ka and a dissociation rate constant kd of individual antibodies for the human CD4.
As a result, an association rate constant (hereinafter, referred to as “ka”), a dissociation rate constant (hereinafter, referred to as “kd”) and a dissociation constant KD (kd/ka) of individual antibodies thus obtained are given in Table 2.

[2] = target: T1, recombinant human CD4 (catalogue …); test: SPR, Biacore T100; antibody captured on anti-human IgG chip, recombinant human CD4 flowed; 1:1 binding model
Protocol: (§1) In order to kinetically analyze the binding activity of anti-CD4 chimeric antibodies KM4045 to KM4049, 6G5-1 and 6G5-P to recombinant human CD4, the binding activity was measured by surface plasmon resonance method (SPR). All of the following manipulations were carried out using a Biacore T100 (manufactured by GE Healthcare Bio-Sciences). The anti-human IgG antibody was immobilized on a CM5 sensor chip (manufactured by GE Healthcare Bio-Sciences) by an amine coupling method using a Human Antibody Capture Kit (manufactured by GE Healthcare Bio-Sciences) in accordance with the protocols attached thereto. An assay sample (anti-CD4 chimeric antibodies KM4045 to KM4049) was added to be captured on the anti-human IgG antibody-immobilized chip to give 100 RU (resonance unit). Thereafter, the recombinant human CD4 (manufactured by R&D) diluted from 2500 ng/mL in five steps was allowed to run at a flow rate of 30 μL/min onto the chip, and the sensorgram corresponding to each concentration was obtained. The analysis was carried out in the 1:1 binding model using an analysis software attached to the apparatus, Biacore T100 Evaluation software (manufactured by Biacore), thereby calculating an association rate constant ka and a dissociation rate constant kd of respective antibodies for human CD4.
As a result, an association rate constant ka, a dissociation rate constant kd, and a dissociation constant KD (kd/ka) of individual antibodies thus obtained are given in Table 5.

[3] = target: T1, recombinant human CD4 (catalogue …); test: as above; remark: listed apart in the source
Protocol: as §1
The measurement of a binding activity was carried out according to the method described in Example 7(2). The association rate constant ka, the dissociation rate constant kd and the dissociation constant KD (kd/ka) of respective antibodies thus obtained are shown in Table 6.

[4] = target: T1, recombinant human CD4 (catalogue …); test: Biacore T100
[5] = target: T1, recombinant human CD4 (catalogue …); test: SPR, Biacore T100; summary sentence to Table 6

B1: anti-CD4 rat monoclonal antibody KM4068 (antibody, V domains shown)
VH: QVQLKESGPGLVQPSQTLSLTCTVSGLSLTSNSVSWIRQPPGKGLEWMGIIWSNGDTDYNSAIKSRLSISRDTSKSQVFLKMNSLQTEDTAMYFCANPYYGYNFPFDYWGQGVMVTVSS
VL: DIQMTQSPASLSASLEEIVTITCKASQGIDNYLSWYQQKPGKSPQLLIYDATSLADGVPSRFSGSRSGTQYSLKISRPQVDDSGIYYCLQSYSTPFTFGSGTKLEIK
notes: Rat hybridoma IgG with a kappa light chain
Kd [1]: 1100 pM | koff [1]: 0.00204 s⁻¹ | kon [1]: 1.85e+06 M⁻¹ s⁻¹

B2: anti-CD4 chimeric antibody KM4048 (antibody, V domains shown)
VH: QVQLKESGPGLVQPSQTLSLTCTVSGLSLTSNSVSWIRQPPGKGLEWMGIIWSNGDTDYNSAIKSRLSISRDTSKSQVFLKMNSLQTEDTAMYFCANPYYGYNFPFDYWGQGVMVTVSS
VL: DIQMTQSPASLSASLEEIVTITCKASQGIDNYLSWYQQKPGKSPQLLIYDATSLADGVPSRFSGSRSGTQYSLKISRPQVDDSGIYYCLQSYSTPFTFGSGTKLEIK
notes: Variable regions of rat KM4068 joined to the '113F type' human IgG1/IgG3 heavy chain constant region (US2007/0148165) and a human kappa constant region; Expressed in FUT8 knockout CHO cells (0% fucose)
Kd [2]: 651 pM | koff [2]: 0.00381 s⁻¹ | kon [2]: 5.85e+06 M⁻¹ s⁻¹

B3: anti-CD4 chimeric antibody KM4049 (antibody, V domains shown)
VH: QVQLKESGPGLVQPSQTLSLTCTVSGSSLTSNSVSWIRQPPGKGLEWMGVIWSNGDADYNSAIKSRLSISRDTSKSQVFLKMNSLQTEDTAMYFCASPYYGYYFPFDYWGQGVMVTVSS
VL: DIQMTQSPASLSASLEEIVTITCKASQAIDAYLSWYQQKPGKSPQLLIYDATSLADGVPSRFSGSRSGTQYSLKISRPQVDDSGIYYCLQSYSTPFTFGSGTKLEIK
notes: Variable regions of rat KM4069 joined to the '113F type' human IgG1/IgG3 heavy chain constant region (US2007/0148165) and a human kappa constant region; Expressed in FUT8 knockout CHO cells (0% fucose)
Kd [2]: 200 pM | koff [2]: 0.00116 s⁻¹ | kon [2]: 5.77e+06 M⁻¹ s⁻¹

B4: anti-CD4 rat monoclonal antibody KM4069 (antibody, V domains shown)
VH: QVQLKESGPGLVQPSQTLSLTCTVSGSSLTSNSVSWIRQPPGKGLEWMGVIWSNGDADYNSAIKSRLSISRDTSKSQVFLKMNSLQTEDTAMYFCASPYYGYYFPFDYWGQGVMVTVSS
VL: DIQMTQSPASLSASLEEIVTITCKASQAIDAYLSWYQQKPGKSPQLLIYDATSLADGVPSRFSGSRSGTQYSLKISRPQVDDSGIYYCLQSYSTPFTFGSGTKLEIK
notes: as for B1
Kd [1]: 482 pM | koff [1]: 0.000584 s⁻¹ | kon [1]: 1.21e+06 M⁻¹ s⁻¹

B5: anti-CD4 human antibody 6G5-1 (antibody, V domains shown)
VH: QVQLQQWGAGLLKPSETLSLTCAVYGGSFSGYYWSWIRQPPGKGLEWIGEINHSGSTNYNPSLKSRVTISVDTSKNQFSLKLSSVTAADTAVYYCARVINWFDPWGQGTLVTVSS
VL: DIQMTQSPSSVSASVGDRVTITCRASQDISSWLAWYQHKPGKAPKLLIYAASSLQSGVPSRFSGSGSGTDFTLTISSLQPEDFATYYCQQANSFPYTFGQGTKLEIKR
Kd [2]: 1460 pM | koff [2]: 0.000872 s⁻¹ | kon [2]: 595000 M⁻¹ s⁻¹ | Kd [3]: 1540 pM | koff [3]: 0.000824 s⁻¹ | kon [3]: 534000 M⁻¹ s⁻¹

B6: anti-CD4 rat monoclonal antibody KM4066 (antibody, V domains shown)
VH: EVQLEESGGGLVQPGRSLKLSCLASGFTFSNYGMNWIRQAPGKGLEWVASISGSSTYIYYADTVKGRFTISRENAENTLYLQMTSLRSEDTALYYCAREGSSTDRYYEVSFAYWGQGTLVTVSS
VL: DVVLTQTPVSLSVTLGDQASISCRSSQSLEYSDGYTYLEWYLQKPGQSPQVLIYGVSNRFSGVPDRFIGSGSGTDFTLKISRVEPEDLGVYYCFQATHDPYTFGAGTRLELK
notes: as for B1
Kd [1]: 88.2 pM | koff [1]: 0.000118 s⁻¹ | kon [1]: 1.34e+06 M⁻¹ s⁻¹

B7: anti-CD4 chimeric antibody KM4046 (antibody, V domains shown)
VH: EVQLEESGGGLVQPGRSLKLSCLASGFTFSNYGMNWIRQAPGKGLEWVASISGSSTYIYYADTVKGRFTISRENAENTLYLQMTSLRSEDTALYYCAREGSSTDRYYEVSFAYWGQGTLVTVSS
VL: DVVLTQTPVSLSVTLGDQASISCRSSQSLEYSDGYTYLEWYLQKPGQSPQVLIYGVSNRFSGVPDRFIGSGSGTDFTLKISRVEPEDLGVYYCFQATHDPYTFGAGTRLELK
notes: Variable regions of rat KM4066 joined to the '113F type' human IgG1/IgG3 heavy chain constant region (US2007/0148165) and a human kappa constant region; Expressed in FUT8 knockout CHO cells (0% fucose)
Kd [2]: 61.4 pM | koff [2]: 5.12e-05 s⁻¹ | kon [2]: 834000 M⁻¹ s⁻¹

B8: anti-CD4 rat monoclonal antibody KM4067 (antibody, V domains shown)
VH: QVKLLQSGAALVKPGASVKMSCKASGYTFTDYWVHWVKQSHGKSLEWIGEIYPNNNTTNFNEKFKGKATLTVDKFTSTAYMELSRLTSEDSAIYYCTRGTVYYGLGYFDHWGQGVMVTVSS
VL: DIRMTQSPASLSASLGETVNIECLASEDVYSDLAWYQQKPGKSPQLLIYNANNLQSGVPSRFSGSGSGTRYSLKINSLQSEDVATYFCQQYNNYPPYTFGAGTKLELK
notes: as for B1
Kd [1]: 541 pM | koff [1]: 0.000473 s⁻¹ | kon [1]: 875000 M⁻¹ s⁻¹

B9: anti-CD4 chimeric antibody KM4047 (antibody, V domains shown)
VH: QVKLLQSGAALVKPGASVKMSCKASGYTFTDYWVHWVKQSHGKSLEWIGEIYPNNNTTNFNEKFKGKATLTVDKFTSTAYMELSRLTSEDSAIYYCTRGTVYYGLGYFDHWGQGVMVTVSS
VL: DIRMTQSPASLSASLGETVNIECLASEDVYSDLAWYQQKPGKSPQLLIYNANNLQSGVPSRFSGSGSGTRYSLKINSLQSEDVATYFCQQYNNYPPYTFGAGTKLELK
notes: Variable regions of rat KM4067 joined to the '113F type' human IgG1/IgG3 heavy chain constant region (US2007/0148165) and a human kappa constant region; Expressed in FUT8 knockout CHO cells (0% fucose)
Kd [2]: 369 pM | koff [2]: 0.000488 s⁻¹ | kon [2]: 1.33e+06 M⁻¹ s⁻¹

B10: anti-CD4 rat monoclonal antibody KM4065 (antibody, V domains shown)
VH: EVQLVESGGGLVQPGRSMKLSCAASGFTFSNYGMAWVRQAPTKGLEWVATISYDGSITYYRDSVKGRFTISRDHAKSTLYLQMNSLRSEDTATYYCTREEQYSSWYFDFWGPGIMVTVSS
VL: DIVLTQSPALAVSLGQRATISCRASQSVSISSHDLMQWYQQKPGQQPKLLIYDAFNLASGIPVRFSGSGSGTDFTLTIDPVQADDIATYYCQQSKDDPYTFGAGTKLELK
notes: as for B1
Kd [1]: 4.26 pM | koff [1]: 1.52e-06 s⁻¹ | kon [1]: 357000 M⁻¹ s⁻¹

B11: anti-CD4 humanized antibody HV3LV0 (antibody, V domains shown)
VH: EVQLVESGGGLVQPGRSLRLSCAASGFTFSNYGMAWVRQAPGKGLEWVATISYDGSITYYRDSVKGRFTISRDNSKNTLYLQMNSLRAEDTATYYCTREEQYSSWYFDFWGQGILVTVSS
VL: DIQLTQSPSSLSASVGDRVTITCRASQSVSISSHDLMQWYQQKPGKAPKLLIYDAFNLASGVPSRFSGSGSGTDFTLTISSLQPEDFATYYCQQSKDDPYTFGQGTKLEIK
notes: Expressed from the humanized antibody expression vector pKANTEX93
binding activity relative to the anti-CD4 chimeric antibody KM4045 [4]: 0.5 fold of KM4045 | Kd [3]: < 7.52 pM | koff [3]: < 1e-05 s⁻¹ | kon [3]: 1.33e+06 M⁻¹ s⁻¹ | Kd [5]: ≤ 100 pM

B12: anti-CD4 humanized antibody HV2LV0 (antibody, V domains shown)
VH: EVQLVESGGGLVQPGRSLRLSCAASGFTFSNYGMAWVRQAPGKGLEWVATISYDGSITYYRDSVKGRFTISRDNSKNTLYLQMNSLRAEDTAVYYCTREEQYSSWYFDFWGQGILVTVSS
VL: DIQLTQSPSSLSASVGDRVTITCRASQSVSISSHDLMQWYQQKPGKAPKLLIYDAFNLASGVPSRFSGSGSGTDFTLTISSLQPEDFATYYCQQSKDDPYTFGQGTKLEIK
notes: Expressed from the humanized antibody expression vector pKANTEX93; also called KM8045; humanized antibody KM8045
binding activity relative to the anti-CD4 chimeric antibody KM4045 [4]: 0.5 fold of KM4045 | Kd [3]: < 8.77 pM | koff [3]: < 1e-05 s⁻¹ | kon [3]: 1.14e+06 M⁻¹ s⁻¹ | Kd [5]: ≤ 100 pM

B13: anti-CD4 humanized antibody HV0LV0 (antibody, V domains shown)
VH: EVQLVESGGGLVQPGRSLRLSCAASGFTFSNYGMAWVRQAPGKGLEWVATISYDGSITYYRDSVKGRFTISRDNSKNTLYLQMNSLRAEDTAVYYCAREEQYSSWYFDFWGQGTLVTVSS
VL: DIQLTQSPSSLSASVGDRVTITCRASQSVSISSHDLMQWYQQKPGKAPKLLIYDAFNLASGVPSRFSGSGSGTDFTLTISSLQPEDFATYYCQQSKDDPYTFGQGTKLEIK
notes: CDRs of KM4065 grafted into human framework regions; Expressed from the humanized antibody expression vector pKANTEX93
Kd [3]: 19.5 pM | koff [3]: 2.86e-05 s⁻¹ | kon [3]: 1.47e+06 M⁻¹ s⁻¹ | Kd [5]: ≤ 100 pM
